The record followed here is the supplement of paper PMC7877785.

± gives the uncertainty stated by the source.

The series can be described thus: self-splicing fitness, log relative to wild type (ln ratio); higher = more splicing; Tetrahymena group I intron in knt gene, E. coli kanamycin selection, DiMSum; sequences stand for … in CUCUCU…GGAGGGAAAAGUUAUCAGGCAUGCACCUGGUAGCUAGUCUUUAAACCAAUAGAUUGCAUCGGUUUAAAAGGCAAGACCGUCAAAUUGCGGGAAAGGGGUCAACAGCCGUUCAGUACCAAGUCUCAGGGGAAACUUUGAGAUGGCCUUGCAAAGGGUAUGGUAAUAAGCUGACGGACAUGGUCCUAACCACGCAGCCAAGUCCUAAGUCAACAGAUCUUCUGUUGAUAUGGAUGCAGUUCACAGACUAAAUGUCGGUCGGGGAAGAUGUAUUCUUCUCAUAAGAUAUAGUCGGACCUCUCCUUAAUGGGAGCUAGCGGAUGAAGUGAUGCAACACUGGAGCCGCUGGGAACUAAUUUGUAUGCGAAAGUAUAUUGAUUAGUUUUGGAGUACUCGUGGUCG
In a few lines: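 Six replicate transformations of E. coli BL21(DE3) with a pET-22b(+) library were grown overnight at 37°C or 30°C. The library randomised all eight P1ex-region intron nucleotides, the intron lying in the knt kanamycin-resistance gene, and plates were LB agar with or without 25 μg/mL kanamycin plus 100 μg/mL carbenicillin, 50 μM IPTG and 0.2% rhamnose. Pooled colonies were amplicon-sequenced on an Illumina HiSeq 2500, and fitness is the DiMSum error-weighted combination of wild-type-normalised replicate fold changes, kanamycin versus none.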

Take UGCGAGCAAUAUUACGUGCC: the “self-splicing fitness (ln)” value reads like this: (30 °C) -3.9 ± 0.47; (37 °C) -2.55 ± 0.33.

As to CGCCAGCAAUAUUACGUCAC, the “self-splicing fitness (ln)” value (30 °C) was -3.7 ± 0.24 and the “self-splicing fitness (ln)” value (37 °C) was -2 ± 0.24.

For the sequence CUGCAGCAAUAUUACGUAUA, the “self-splicing fitness (ln)” value is -2.64 ± 0.17 (30 °C) and -2.16 ± 0.18 (37 °C). Take CGCUAGCAAUAUUACGGGCU: the “self-splicing fitness (ln)” value was -1.85 ± 0.17 (30 °C) and -1.33 ± 0.2 (37 °C). As for GACGAGCAAUAUUACGUCUU, the “self-splicing fitness (ln)” value reads like this: (30 °C) -2.63 ± 0.21; (37 °C) -1.01 ± 0.17.

Consider CGCCAGCAAUAUUACGAGUG, for which the “self-splicing fitness (ln)” value runs as follows: (30 °C) -2.41 ± 0.07; (37 °C) -1.59 ± 0.11. The matching figures for UGGGAGCAAUAUUACGUCUG: -1.46 ± 0.12 and -0.899 ± 0.17. For the sequence AUUCAGCAAUAUUACGUAUU, the “self-splicing fitness (ln)” value (30 °C) was -0.474 ± 0.065 and the “self-splicing fitness (ln)” value (37 °C) was -0.558 ± 0.092. With UGGCAGCAAUAUUACGACAA, the “self-splicing fitness (ln)” value is -0.602 ± 0.14 (30 °C) and -0.308 ± 0.16 (37 °C).

On to CUAGAGCAAUAUUACGGUGA, for which the “self-splicing fitness (ln)” value by setting is: (30 °C) -3.58 ± 0.16; (37 °C) -1.46 ± 0.17. On the same counts, the results for CUCCAGCAAUAUUACGGCUU are -1.73 ± 0.19 and -2.76 ± 0.31. The matching figures for GUAUAGCAAUAUUACGUUGU: -2.78 ± 0.26 and -1.72 ± 0.23. On the same counts, the results for CCCGAGCAAUAUUACGGUCG are -3.56 ± 0.24 and -2.58 ± 0.2.

Regarding CCAAAGCAAUAUUACGGAAC, the “self-splicing fitness (ln)” value (37 °C) was -2.53 ± 0.36. On to CCCUAGCAAUAUUACGGCUU, for which the “self-splicing fitness (ln)” value is, setting by setting: (30 °C) -3.76 ± 0.18; (37 °C) -2.26 ± 0.18. Turning to UGCAAGCAAUAUUACGUAGC, the “self-splicing fitness (ln)” value (30 °C) was -3.54 ± 0.37 and the “self-splicing fitness (ln)” value (37 °C) was -2.48 ± 0.41.

As to UAGGAGCAAUAUUACGGAAC, the “self-splicing fitness (ln)” value (37 °C) is -0.574 ± 0.4. With UCAUAGCAAUAUUACGGGUC, the “self-splicing fitness (ln)” value is -2.94 ± 0.42 (30 °C) and -2.9 ± 0.35 (37 °C).

As for GCCUAGCAAUAUUACGCUCU, the “self-splicing fitness (ln)” value is, setting by setting: (30 °C) -0.984 ± 0.06; (37 °C) 0.106 ± 0.083. On the same counts, the results for AACUAGCAAUAUUACGUGAU are -1.71 ± 0.11 and -1.09 ± 0.13.

As to UUAGAGCAAUAUUACGAGUC, under “37 °C”, the “self-splicing fitness (ln)” value is -2.53 ± 0.49. As to UAGAAGCAAUAUUACGAUGA, the “self-splicing fitness (ln)” value reads like this: (30 °C) -0.692 ± 0.13; (37 °C) -0.446 ± 0.1. On the same counts, the results for GGUCAGCAAUAUUACGGUGU are -1.44 ± 0.15 and 0.00529 ± 0.14. The matching figures for CCCCAGCAAUAUUACGAAAU: -3.82 ± 0.17 and -2.25 ± 0.18. The matching figures for AGUGAGCAAUAUUACGGCAC: -1.29 ± 0.17 and -1.01 ± 0.21. With GGCGAGCAAUAUUACGCGUU, the “self-splicing fitness (ln)” value is -2.26 ± 0.24 (30 °C) and -1.94 ± 0.3 (37 °C). The matching figures for UCGGAGCAAUAUUACGUUGG: -2.09 ± 0.17 and -1.77 ± 0.23.

Take UUUAAGCAAUAUUACGUAUG: the “self-splicing fitness (ln)” value runs as follows: (30 °C) -1.44 ± 0.13; (37 °C) -0.482 ± 0.16. The matching figures for CCACAGCAAUAUUACGGUUC: -3.39 ± 0.18 and -2.27 ± 0.19. Turning to GGGCAGCAAUAUUACGCGCU, the “self-splicing fitness (ln)” value was -2.33 ± 0.19 (30 °C) and -1.44 ± 0.35 (37 °C). In the case of CCCCAGCAAUAUUACGGACA, the “self-splicing fitness (ln)” value is -3.52 ± 0.14 (30 °C) and -2.53 ± 0.14 (37 °C).

Consider UUGAAGCAAUAUUACGAUCU, for which the “self-splicing fitness (ln)” value is, setting by setting: (30 °C) -1.3 ± 0.13; (37 °C) -0.67 ± 0.14.

Regarding CUGUAGCAAUAUUACGUUAG, the “self-splicing fitness (ln)” value was -2.72 ± 0.11 (30 °C) and -1.77 ± 0.11 (37 °C). The matching figures for GCGCAGCAAUAUUACGGCGG: -2.48 ± 0.13 and -1.28 ± 0.15. UCGGAGCAAUAUUACGACCG: the “self-splicing fitness (ln)” value (30 °C) was -2.42 ± 0.45.

For the sequence CUUAAGCAAUAUUACGGCGG, the “self-splicing fitness (ln)” value is -1.25 ± 0.095 (30 °C) and -0.194 ± 0.083 (37 °C).

Take UUCUAGCAAUAUUACGCGGG: the “self-splicing fitness (ln)” value runs as follows: (30 °C) -3.28 ± 0.23; (37 °C) -2.29 ± 0.22. For the sequence CCAGAGCAAUAUUACGAUUA, the “self-splicing fitness (ln)” value (30 °C) was -3.29 ± 0.3. In the case of CCUCAGCAAUAUUACGCCCG, the “self-splicing fitness (ln)” value is, setting by setting: (30 °C) -0.527 ± 0.15; (37 °C) -0.422 ± 0.18. On the same counts, the results for AAGUAGCAAUAUUACGACUU are -0.629 ± 0.11 and -1.34 ± 0.13. The matching figures for UGCGAGCAAUAUUACGGGUU: -3.38 ± 0.16 and -2.51 ± 0.16. Regarding GCGAAGCAAUAUUACGGGUU, the “self-splicing fitness (ln)” value is, setting by setting: (30 °C) -2.88 ± 0.1; (37 °C) -1.65 ± 0.099. Regarding AUAGAGCAAUAUUACGAAAU, the “self-splicing fitness (ln)” value is, setting by setting: (30 °C) -0.572 ± 0.1; (37 °C) 0.0653 ± 0.13. On the same counts, the results for UUAAAGCAAUAUUACGUUAA are -0.426 ± 0.071 and 0.14 ± 0.091.

Regarding GUGCAGCAAUAUUACGCAGG, the “self-splicing fitness (ln)” value is -2.59 ± 0.12 (30 °C) and -3.12 ± 0.18 (37 °C). On the same counts, the results for UUACAGCAAUAUUACGCGCC are -2.36 ± 0.14 and -0.896 ± 0.2. As for AAGAAGCAAUAUUACGUAUG, the “self-splicing fitness (ln)” value is -1.93 ± 0.11 (30 °C) and -1.14 ± 0.1 (37 °C). On the same counts, the results for UGACAGCAAUAUUACGUAUG are -1.56 ± 0.058 and -0.368 ± 0.073. The matching figures for CGGCAGCAAUAUUACGUCAG: -2.04 ± 0.099 and -0.000984 ± 0.1. Turning to AAACAGCAAUAUUACGAACA, the “self-splicing fitness (ln)” value is, setting by setting: (30 °C) -1.78 ± 0.09; (37 °C) -0.635 ± 0.084. On the same counts, the results for AACCAGCAAUAUUACGCUCA are -0.325 ± 0.049 and 0.493 ± 0.072. On the same counts, the results for ACUCAGCAAUAUUACGCACC are -1.19 ± 0.094 and 0.495 ± 0.11.

With AUACAGCAAUAUUACGAUGC, the “self-splicing fitness (ln)” value was -1.75 ± 0.11 (30 °C) and -1.17 ± 0.16 (37 °C).

AAAGAGCAAUAUUACGUUGC: the “self-splicing fitness (ln)” value (30 °C) was -3.79 ± 0.39 and the “self-splicing fitness (ln)” value (37 °C) is -1.93 ± 0.23.

As to AUUUAGCAAUAUUACGGGGG, the “self-splicing fitness (ln)” value (30 °C) is -2.97 ± 0.42 and the “self-splicing fitness (ln)” value (37 °C) was -2.81 ± 0.47. The matching figures for GGACAGCAAUAUUACGAUGG: -2.41 ± 0.1 and -2.05 ± 0.13. The matching figures for AUGAAGCAAUAUUACGGAGU: -1.4 ± 0.089 and -0.447 ± 0.094. Turning to CGAUAGCAAUAUUACGGAUA, the “self-splicing fitness (ln)” value (37 °C) was -0.838 ± 0.19. Take CUGAAGCAAUAUUACGCUGU: the “self-splicing fitness (ln)” value runs as follows: (30 °C) -3.65 ± 0.2; (37 °C) -2.75 ± 0.24. As to GCACAGCAAUAUUACGGGGU, the “self-splicing fitness (ln)” value (30 °C) is -2.83 ± 0.13 and the “self-splicing fitness (ln)” value (37 °C) is -1.35 ± 0.11. On the same counts, the results for CCUCAGCAAUAUUACGGUAU are -4.53 ± 0.24 and -2.52 ± 0.15.

Consider UGUGAGCAAUAUUACGUGCC, for which, where the note is “30 °C”, the “self-splicing fitness (ln)” value was -2.51 ± 0.3.
